These results are taken from article PMC10440987, “SLG2 specifically regulates grain width through WOX11 ‐mediated cell expansion control in rice”.

Data set [1] concerns the target T1, WOX11-MBP (Oryza sativa (rice; cultivar of the …, UniProt Q0D3I7 1-262).
T1 sequence: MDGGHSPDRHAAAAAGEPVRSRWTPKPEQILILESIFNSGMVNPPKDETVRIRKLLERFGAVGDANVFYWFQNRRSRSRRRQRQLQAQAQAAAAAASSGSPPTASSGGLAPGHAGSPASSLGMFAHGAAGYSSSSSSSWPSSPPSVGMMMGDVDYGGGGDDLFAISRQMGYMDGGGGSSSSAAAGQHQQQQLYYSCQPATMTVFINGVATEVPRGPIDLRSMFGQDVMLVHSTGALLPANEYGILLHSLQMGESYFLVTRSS
The data set is described as follows: EMSA; LightShift Chemiluminescent EMSA Kit (Thermo 20148), manufacturer's instructions; buffer, salt, pH and temperature not stated. Conditions: protein: recombinant; tags: MBP; label: 5' biotin; blunt. For orientation: Mobility shift assays separate free from complexed probe on a gel.

Data set [2] addresses T1, WOX11-MBP. The data set is described as follows: competition EMSA; unlabelled competitor against biotin hot probe N1; LightShift Chemiluminescent EMSA Kit (Thermo 20148), manufacturer's instructions; buffer, salt, pH and temperature not stated. The settings on record: protein: recombinant; tags: MBP; blunt.

B1: pOsEXPB7 hot probe (dsDNA)
DNA 1: AGGGATCGATCGAAATTAATGGCGGGCAGGAGCAGGA
DNA 2: TCCTGCTCCTGCCCGCCATTAATTTCGATCGATCCCT
With B1, in the data set with WOX11-MBP [1], the binding result is given as “binds”.

B2: pOsEXPB7 cold probe (dsDNA)
DNA 1: AGGGATCGATCGAAATTAATGGCGGGCAGGAGCAGGA
DNA 2: TCCTGCTCCTGCCCGCCATTAATTTCGATCGATCCCT
Consider B2, for which the binding result in the data set with WOX11-MBP [2] is on record as “binds”.

B3: pOsEXPB7 mutant probe (dsDNA)
DNA 1: AGGGATCGATCGAAATCCATGGCGGGCAGGAGCAGGA
DNA 2: TCCTGCTCCTGCCCGCCATGGATTTCGATCGATCCCT
For B3, the binding result with WOX11-MBP [1] was “no binding”.
